Results as given in patent US20180155451A1 (published 2018).

T1: FcγRIIb extracellular domain with C-terminal His tag (human, UniProt P31994 43-217)
T1 construct: extracellular domain; also called FcgRIIb; 2b; not shown: His tag at the C terminus
T1 sequence (looked up): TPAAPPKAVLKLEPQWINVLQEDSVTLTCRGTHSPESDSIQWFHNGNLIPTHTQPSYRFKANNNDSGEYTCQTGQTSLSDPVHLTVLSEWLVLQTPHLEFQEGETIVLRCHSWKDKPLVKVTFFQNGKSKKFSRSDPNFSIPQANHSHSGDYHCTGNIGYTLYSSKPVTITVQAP


Columns and labels:
[1] = biological target: T2, FcγRIIIa extracellular domain with C-terminal His tag (human, UniProt P08637 17-208); assay: SPR (Biacore), antibody captured on antigen peptide chip, FcγR as analyte; relative binding amount
T2 construct: extracellular domain; also called FcgRIIIa; 3a; not shown: His tag at the C terminus
Experimental: (§1) Analysis of interaction between objective antibody and the FcγR was carried out using Biacore T100 (GE Healthcare). HBS-EP+ (GE Healthcare) was used as the running buffer, and the measurement temperature was set to 25° C. Chips produced by immobilizing the antigen peptide by the amine coupling method to a Series S Sencor Chip CM5 (GE Healthcare), or alternatively, chips produced by allowing preliminarily biotinylated antigen peptides to interact with and immobilize onto a Series S Sensor Chip SA (certified) (GE Healthcare) were used. Antibodies of interest were captured onto an antigen peptide-immobilized chip, and allowed to interact to each FcγR diluted with running buffer. To regenerate and repeatedly use the chip, the antibodies captured on the chip were washed off by reacting 10 mM glycine-HCl, pH 1.5.
(§2) The FcγR-binding activity of each antibody was assessed primarily using as an indicator the FcγR-binding activity and dissociation constant for FcγR.

[2] = biological target: T1, FcγRIIb extracellular domain with …; assay: as above
Experimental: as §1, §2

T2 sequence (P08637 17-208): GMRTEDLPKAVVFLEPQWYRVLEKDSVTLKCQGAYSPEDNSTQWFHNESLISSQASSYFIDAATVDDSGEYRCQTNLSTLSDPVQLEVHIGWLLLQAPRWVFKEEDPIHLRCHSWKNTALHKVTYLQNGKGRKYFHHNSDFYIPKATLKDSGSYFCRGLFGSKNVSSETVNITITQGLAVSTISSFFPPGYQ

Row | Binder | He/Con_3a [1] | He/Con_2b [2]
1 | GpH7-A5/GpH7-B3 variant N325_01G/GpL16-k0 (antibody, human IgG1, kappa, Heterodimerized anti-glypican-3 IgG1; the substitution stands in the GpH7-B3 chain only; also called He Ab) heavy 1: not shown heavy 2: not shown light: DIVMTQSPLSLPVTPGEPASISCQASESLVHSNRNTYLHWYLQKPGQSPQLLIYKVSNRFSGVPDRFSGSGSGTDFTLKISRVEAEDVGVYYCSQNTHVPPTFGQGTKVEIERTVAAPSVFIFPPSDEQLKSGTASVVCLLNNFYPREAKVQWKVDNALQSGNSQESVTEQDSKDSTYSLSSTLTLSKADYEKHKVYACEVTHQGLSSPVTKSFNRGEC | 28 % of GpH7-A5/GpH7-B3/GpL16-k0 (=100) | 101 % of GpH7-A5/GpH7-B3/GpL16-k0 (=100)
2 | GpH7-A5/GpH7-B3 variant P271_09D/GpL16-k0 (antibody, human IgG1, kappa, Heterodimerized anti-glypican-3 IgG1; the substitution stands in the GpH7-B3 chain only; also called He Ab) heavy 1: not shown heavy 2: not shown light: DIVMTQSPLSLPVTPGEPASISCQASESLVHSNRNTYLHWYLQKPGQSPQLLIYKVSNRFSGVPDRFSGSGSGTDFTLKISRVEAEDVGVYYCSQNTHVPPTFGQGTKVEIERTVAAPSVFIFPPSDEQLKSGTASVVCLLNNFYPREAKVQWKVDNALQSGNSQESVTEQDSKDSTYSLSSTLTLSKADYEKHKVYACEVTHQGLSSPVTKSFNRGEC | 93.1 % of GpH7-A5/GpH7-B3/GpL16-k0 (=100) | 120 % of GpH7-A5/GpH7-B3/GpL16-k0 (=100)
3 | GpH7-A5/GpH7-B3 variant P271_08L/GpL16-k0 (antibody, human IgG1, kappa, Heterodimerized anti-glypican-3 IgG1; the substitution stands in the GpH7-B3 chain only; also called He Ab) heavy 1: not shown heavy 2: not shown light: DIVMTQSPLSLPVTPGEPASISCQASESLVHSNRNTYLHWYLQKPGQSPQLLIYKVSNRFSGVPDRFSGSGSGTDFTLKISRVEAEDVGVYYCSQNTHVPPTFGQGTKVEIERTVAAPSVFIFPPSDEQLKSGTASVVCLLNNFYPREAKVQWKVDNALQSGNSQESVTEQDSKDSTYSLSSTLTLSKADYEKHKVYACEVTHQGLSSPVTKSFNRGEC | 71 % of GpH7-A5/GpH7-B3/GpL16-k0 (=100) | 103 % of GpH7-A5/GpH7-B3/GpL16-k0 (=100)
4 | GpH7-A5/GpH7-B3 variant H268_15Y/GpL16-k0 (antibody, human IgG1, kappa, Heterodimerized anti-glypican-3 IgG1; the substitution stands in the GpH7-B3 chain only; also called He Ab) heavy 1: not shown heavy 2: not shown light: DIVMTQSPLSLPVTPGEPASISCQASESLVHSNRNTYLHWYLQKPGQSPQLLIYKVSNRFSGVPDRFSGSGSGTDFTLKISRVEAEDVGVYYCSQNTHVPPTFGQGTKVEIERTVAAPSVFIFPPSDEQLKSGTASVVCLLNNFYPREAKVQWKVDNALQSGNSQESVTEQDSKDSTYSLSSTLTLSKADYEKHKVYACEVTHQGLSSPVTKSFNRGEC | 97.5 % of GpH7-A5/GpH7-B3/GpL16-k0 (=100) | 106 % of GpH7-A5/GpH7-B3/GpL16-k0 (=100)
5 | GpH7-A5/GpH7-B3 variant H268_01G/GpL16-k0 (antibody, human IgG1, kappa, Heterodimerized anti-glypican-3 IgG1; the substitution stands in the GpH7-B3 chain only; also called He Ab) heavy 1: not shown heavy 2: not shown light: DIVMTQSPLSLPVTPGEPASISCQASESLVHSNRNTYLHWYLQKPGQSPQLLIYKVSNRFSGVPDRFSGSGSGTDFTLKISRVEAEDVGVYYCSQNTHVPPTFGQGTKVEIERTVAAPSVFIFPPSDEQLKSGTASVVCLLNNFYPREAKVQWKVDNALQSGNSQESVTEQDSKDSTYSLSSTLTLSKADYEKHKVYACEVTHQGLSSPVTKSFNRGEC | 96.7 % of GpH7-A5/GpH7-B3/GpL16-k0 (=100) | 144 % of GpH7-A5/GpH7-B3/GpL16-k0 (=100)
6 | GpH7-A5/GpH7-B3 variant P271_10E/GpL16-k0 (antibody, human IgG1, kappa, Heterodimerized anti-glypican-3 IgG1; the substitution stands in the GpH7-B3 chain only; also called He Ab) heavy 1: not shown heavy 2: not shown light: DIVMTQSPLSLPVTPGEPASISCQASESLVHSNRNTYLHWYLQKPGQSPQLLIYKVSNRFSGVPDRFSGSGSGTDFTLKISRVEAEDVGVYYCSQNTHVPPTFGQGTKVEIERTVAAPSVFIFPPSDEQLKSGTASVVCLLNNFYPREAKVQWKVDNALQSGNSQESVTEQDSKDSTYSLSSTLTLSKADYEKHKVYACEVTHQGLSSPVTKSFNRGEC | 93.6 % of GpH7-A5/GpH7-B3/GpL16-k0 (=100) | 109 % of GpH7-A5/GpH7-B3/GpL16-k0 (=100)

Now from value to binder:

Row | He/Con_3a [1] | He/Con_2b [2] | Binder
7 | 96.3 % of GpH7-A5/GpH7-B3/GpL16-k0 (=100) | 108 % of GpH7-A5/GpH7-B3/GpL16-k0 (=100) | GpH7-A5/GpH7-B3 variant Y300_19Q/GpL16-k0 (antibody, human IgG1, kappa, Heterodimerized anti-glypican-3 IgG1; the substitution stands in the GpH7-B3 chain only; also called He Ab) heavy 1: not shown heavy 2: not shown light: DIVMTQSPLSLPVTPGEPASISCQASESLVHSNRNTYLHWYLQKPGQSPQLLIYKVSNRFSGVPDRFSGSGSGTDFTLKISRVEAEDVGVYYCSQNTHVPPTFGQGTKVEIERTVAAPSVFIFPPSDEQLKSGTASVVCLLNNFYPREAKVQWKVDNALQSGNSQESVTEQDSKDSTYSLSSTLTLSKADYEKHKVYACEVTHQGLSSPVTKSFNRGEC
8 | 45.6 % of GpH7-A5/GpH7-B3/GpL16-k0 (=100) | 104 % of GpH7-A5/GpH7-B3/GpL16-k0 (=100) | GpH7-A5/GpH7-B3 variant S267_14T/GpL16-k0 (antibody, human IgG1, kappa, Heterodimerized anti-glypican-3 IgG1; the substitution stands in the GpH7-B3 chain only; also called He Ab) heavy 1: not shown heavy 2: not shown light: DIVMTQSPLSLPVTPGEPASISCQASESLVHSNRNTYLHWYLQKPGQSPQLLIYKVSNRFSGVPDRFSGSGSGTDFTLKISRVEAEDVGVYYCSQNTHVPPTFGQGTKVEIERTVAAPSVFIFPPSDEQLKSGTASVVCLLNNFYPREAKVQWKVDNALQSGNSQESVTEQDSKDSTYSLSSTLTLSKADYEKHKVYACEVTHQGLSSPVTKSFNRGEC
9 | 65 % of GpH7-A5/GpH7-B3/GpL16-k0 (=100) | 218 % of GpH7-A5/GpH7-B3/GpL16-k0 (=100) | GpH7-A5/GpH7-B3 variant S267_19Q/GpL16-k0 (antibody, human IgG1, kappa, Heterodimerized anti-glypican-3 IgG1; the substitution stands in the GpH7-B3 chain only; also called He Ab) heavy 1: not shown heavy 2: not shown light: DIVMTQSPLSLPVTPGEPASISCQASESLVHSNRNTYLHWYLQKPGQSPQLLIYKVSNRFSGVPDRFSGSGSGTDFTLKISRVEAEDVGVYYCSQNTHVPPTFGQGTKVEIERTVAAPSVFIFPPSDEQLKSGTASVVCLLNNFYPREAKVQWKVDNALQSGNSQESVTEQDSKDSTYSLSSTLTLSKADYEKHKVYACEVTHQGLSSPVTKSFNRGEC
